The source of these data is patent US20240252641A1 (TCR2 THERAPEUTICS, published 2024).

The labels stand for the following.
T1: CD70 on cells (CHO-CD70, JVM-3, U266, Raji, THP-1, T cells) (human, UniProt P32970 1-193)
T1 construct: whole, on cells; also called cell-surface CD70
T1 sequence (looked up): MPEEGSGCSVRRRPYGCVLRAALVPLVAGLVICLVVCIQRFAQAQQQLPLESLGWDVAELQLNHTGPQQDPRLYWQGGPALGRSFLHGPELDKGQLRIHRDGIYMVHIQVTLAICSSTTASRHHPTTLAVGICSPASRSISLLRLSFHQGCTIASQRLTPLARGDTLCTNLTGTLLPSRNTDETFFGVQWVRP

T2: human CD70, recombinant, N-terminally biotinylated (residues 39-193) (human, UniProt P32970 39-193, N-terminal biotin)
T2 construct: range 39-193; the same entry is used there; also called biotinylated human CD70; CD70 biotin
T2 sequence (looked up): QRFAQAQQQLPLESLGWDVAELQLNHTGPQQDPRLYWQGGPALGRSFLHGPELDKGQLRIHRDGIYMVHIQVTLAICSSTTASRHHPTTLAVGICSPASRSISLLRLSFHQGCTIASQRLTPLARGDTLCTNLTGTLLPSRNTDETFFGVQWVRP

B1: 13-TC7-I-E11 (scFv)
scFv: QVQLQQWGAGLLKPSETLSLTCAVYGGSFSGYYWSWIRQPPGKGLEWIGEINHSGSTNYNPSLKSRVTISVDTSKNQFSLKLSSVTAADTAVYYCARSRRPYWYFDLWGRGTLVTVSSGGSGGSGGSGGSQSVLTQPPSVSGAPGQRVTISCTGSSSNIGAGYDVHWYQQLPGTAPKLLIYGDSNRPSGVPDRFSGSGSGTSASLAITGLQAEDEGDYYCQSFDSNLSRYVFGAGTKLTVL
notes: His-tagged
B2: 35-TC6-VII-A09 (scFv)
scFv: EVQLVQSGGGVVQPGRSLRLSCAASGFTFSSYGMHWVRQAPGKGLEWVAVISYDGSNKYYADSVKGRFTISRDNSKNTLYLQMNSLRAEDTAVYYCAKAGAPPHYYYGMDVWGQGTTVTVSSGGSGGSGGSGGSQSALTQPASVSGSPGQSITISCTGTSSDVGGYDYVSWYQQHPGKAPKLMIYEVTDRPSGIPNRFSGSKSGNTASLTISGLQAEDEADYYCSSYTYTSTLEVFGGGTKVTVL
notes: His-tagged
B3: 55-TC4-IX-G04 (scFv)
scFv: QVQLLESGGGVVQPGRSLRLSCAASGFTFSSYAMHWVRQAPGKGLEWVAVISYDGSNKYYADSVKGRFTISRDNSKNTLYLQMNSLRAEDTAVYYCARGLGFGSGWYEYVDAFDIWGQGTMVTVSSGGSGGSGGSGGSQSVLTQPASVSGSPGQSITISCTGTSSDVGSYNLVSWYQQHPGKAPKLMIYEVSKRPSGVSNRFSGSKSGNTASLTISGLQAEDEADYYCSSYRSNNTPWVFGGGTKLTVL
notes: His-tagged
B4: 52-TC7-VIII-C02 (scFv)
scFv: QVQLLESGGGVVQPGRSLRLSCAASGFTFSSYGMHWVRQAPGKGLEWVAVISYDGSNKYYADSVKGRFTISRDNSKNTLYLQMNSLRAEDTAVYYCAKGAYYYGSVSGMDVWGQGTTVTVSSGGSGGSGGSGGSSYELTQPVSVSVALGQTARLTCAGNNIGSKNVHWYQQKPSQAPVLVIYNDNIRPNFGIPERFSGSNSGNTATLTISSAQAGDEADYYCQVWDSSTAEVFGGGTKLTVL
notes: His-tagged
B5: 14-TC6-I-F03 (scFv)
scFv: QVQLVQSGAEVKKPGASVKVSCKASGYTFTGYYMNWVRQAPGQGLEWMAWINPNTGDTNYAQKFQGRVTMTRDTSINTAYIELSRLTSDDTAVYYCARVGDYYDRSGYYRHDAFDIWGQGTMVTVSSGGSGGSGGSGGSSSELTQDPAVSVALGQTVRITCQGDSLRSYYASWYQQKPGQAPVLVIYGKNNRPSGIPDRFSGSNSGNTATLTISGTQAMDEADYYCQAWDSSTVFGGGTKVTVL
notes: His-tagged
B6: 43-TC4-VII-C04 (scFv)
scFv: QVQLLESGGGLVQPGRSLRLSCAASGFTFDDYAMHWVRQAPGKGLEWVSGISWNSGSIGYADSVKGRFTISRDNAKNSLYLQMNSLRAEDTAVYYCARDLVYYYGMDVWGQGTTVTVSSGGSGGSGGSGGSQSVLTQPPSVSGTPGQGVSISCSGSSSNIGWKTVNWYQQVPGMAPKLLIYSDNQRPSGVPDRFSGSKSATSASLAISGLQSEDEADYYCASWDASVNAPVFGGGTKLTVL
notes: His-tagged
B7: 30-TC1.2-I-C08-1 (scFv)
scFv: QMQLVQSGAEVKKPGASVKVSCKASGYTFTSYGISWVRQAPGQGLEWMGWINPNTGGTDYAQKFQGRVTITRDTSITTGYMELSRLRSDDTAVYYCARHYYYGMDVWGQGTTVTVSSGGSGGSGGSGGSDIQLTQSPSSLSASVGDRVTITCQASQDISNYLNWYQQKPGKAPKLLIYDASNLETGVPSRFSGSGSGTDFTFTISSLQPEDIATYYCQQYDNLPLTFGGGTKVEIK
notes: His-tagged
B8: 58-TC7-III-G11 (scFv)
scFv: EVQLVQSGGGVVQPGRSLRLSCAASGFTFSSYAMHWVRQAPGKGLEWVAVISYDGSNKYYADSVKGRFTISRDNSKNTLYLQMNSLRAEDTAVYYCATNSGYDSDYYYGMDVWGQGTTVTVSSGGSGGSGGSGGSQSVLTQPPSMSGAPGQRVTISCTGSSSNIGAGYDVHWYQHLPGTGPKLLIHGNTNRPSGVPDRFSGSKSGTSASLAITGLQAEDEADYYCQSYDNSLGGYVVFGGGTKVTVL
notes: His-tagged
B9: 14-TC4-III-A04 (scFv)
scFv: QVQLVQSGAEVKKPGASVKVSCKASGYTFTGYYMNWVRQAPGQGLEWMAWINPNTGDTNYAQKFQGRVTMTRDTSINTAYIELSRLTSDDTAVYYCARVGDYYDRSGYYRHDAFDIWGQGTMVTVSSGGSGGSGGSGGSSSELTQDPAVSVALGQTVRITCQGDSLRSYYASWYQQKPGQAPVLVIYGKNNRPSGIPDRFSGSSSGNTASLTITGAQAEDEADYYCQAWDSSTGVFGGGTKVTVL
notes: His-tagged
B10: 59-TC4-VII-F02 (scFv)
scFv: QLQLQESGPGLVKPSGTLSLTCAVSGGSISSSNWWSWVRQPPGKGLEWIGEIYHSGSTNYNPSLKSRVTISVDKSKNQFSLKLSSVTAADTAVYYCAGPGPDPNDAFDIWGQGTMVTVSSGGSGGSGGSGGSSSELTQDPAVSVALGQTVRITCQGDSLRSYYASWYQQLPGTAPKLLIYQDSKRPSGIPERFSGSNSGNTATLTISGTQAMDEADYYCQAWDSSTAVFGGGTKLTVL
notes: His-tagged
B11: 14-TC4-XIII-A01 (scFv)
scFv: QVQLVQSGAEVKKPGASVKVSCKASGYTFTGYYMNWVRQAPGQGLEWMAWINPNTGDTNYAQKFQGRVTMTRDTSINTAYIELSRLTSDDTAVYYCARVGDYYDRSGYYRHDAFDIWGQGTMVTVSSGGSGGSGGSGGSSSELTQDPAVSVALGQTVRITCQGDSLRSYYASWYQQKPGQAPVLVIYGKNNRPSGIPDRFSGSSSGNTASLTITGAQAMDEADYYCQAWDSSTGVVFGGGTKVTVL
notes: His-tagged

In the first experiment the target is T1, CD70 on cells (CHO-CD70, JVM-3, U266, …). Description: 1.25 µg/mL scFv on CHO-CD70 cells. In a few lines: (§1)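 Panning of a naïve human library against the CD70 extracellular domain (aa39-193) yielded human scFv antibodies. Binding to high-CD70 (CHO-CD70, JVM3, U266) and low-CD70 (CHO WT, K562) tumour cell lines was recorded line by line.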
B1 displayed a cell binding of 532000.
On to B2, for which the cell binding came out at 1.15e+06.
Consider B3, for which the cell binding came out at 87200.
B4: the cell binding amounted to 430000.
In turn, B5 registered a cell binding of 33400.
Turning to B6, the cell binding amounted to 723000.
Consider B7, for which the cell binding turned out to be 503000.
Still for that read-out and setting: the figure for B8 is 277000; for B9 it is 610000; for B10 it is 850000.
Consider B11, for which the cell binding came out at 111000.

In a further experiment the target is T2, human CD70, recombinant, N-terminally …. In words: CD27 blocking ELISA, 3 µM scFv, strep/HRP. In general terms: An ELISA detects its analyte on a solid surface through an enzyme-linked reagent.
For B1, the strep/HRP was found to be 1.42.
On to B2, for which the strep/HRP stood at 1.49.
Turning to B3, the strep/HRP amounted to 1.28.
As to B4, the strep/HRP turned out to be 0.533.
Take B5: the strep/HRP was determined as 0.954.
As to B6, the strep/HRP was 1.44.
Regarding B7, the strep/HRP came out at 1.5.
On to B8, for which the strep/HRP was determined as 0.503.
Still for that read-out and setting: with B9 the figure was 0.359; with B10, 1.43; with B11, 1.46.

For the next experiment, the target named is T1, CD70 on cells (CHO-CD70, JVM-3, U266, …). Description: 1.25 µg/mL scFv on JVM-3 cells. In a few lines: as §1
Consider B1, for which the cell binding turned out to be 80500.
For B2, the cell binding worked out at 18800.
For the molecule B3, the cell binding came to 3570.
The same measure, in the same setting: the figure for B4 is 8050; for B5 it is 1880; for B6 it is 45000.
In the case of B7, the cell binding is 37400.
On to B8, for which the cell binding amounted to 14700.
Molecule B9 displayed a cell binding of 17000.
B10 registered a cell binding of 52100.
Turning to B11, the cell binding came out at 1290.

Another experiment has as its target T2, human CD70, recombinant, N-terminally …. Description: CD27 blocking ELISA, 3 µM scFv, anti-His/HRP. Further: unit not given here. As for the experimental part:
Human scFv antibodies binding CD70 were generated by panning a naïve human library with the extracellular domain (aa39-193) of CD70. 53 antibodies were identified. The ability of CD27 to block CD70 binding of the identified antibodies was measured by ELISA using two different assays. In the first assay, CD27 and his-tagged scFv anti-CD70 binders were simultaneously added to surface bound CD70, and the ability of the scFv binders to bind CD70 was detected with anti-His HRP. In the second assay, plate-bound CD70 was pre-incubated with CD27 for 30 minutes, and then additional CD27 and the his-tagged scFv anti-CD70 binder was added. The ability of the scFv binders to bind CD70 was detected with anti-His HRP. FIG. 34 is a schematic of the two different CD27 blocking assays. CD70 affinity was also measured by SPR analysis. scFv antibodies were also tested for their ability to bind tumor cell lines with high (CHO-CD70, JVM3, and U266) and low levels (CHO WT and K562 of CD70 expression. Results for 39 antibodies are shown in Table 1 below.
For the molecule B1, the “anti His/HRP” value worked out at 2.29.
Consider B2, for which the “anti His/HRP” value is 0.639.
As for B3, the “anti His/HRP” value was determined as 1.24.
In the case of B4, the “anti His/HRP” value was 1.56.
As to B5, the “anti His/HRP” value was 2.47.
With B6, the “anti His/HRP” value was found to be 1.81.
For B7, the “anti His/HRP” value is 1.83.
Same read-out and setting: the figure for B8 is 1.97; for B9 it is 2.81; for B10 it is 2.06.
On to B11, for which the “anti His/HRP” value turned out to be 1.74.

The next experiment has the same target. In words: SPR. In short, it runs like this:
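Human scFv antibodies came from panning a naïve human library against the CD70 extracellular domain (aa39-193). Their affinity (Kd) for recombinant, N-terminally biotinylated human CD70 was measured by surface plasmon resonance (SPR) analysis.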
Background: SPR reads the build-up and loss of mass on a sensor chip optically.
Turning to B1, the Kd came out at 44.7 nM.
On the same count and under the same terms, the figure for B2 is 367 nM; for B3 it is 984 nM.
B4: the Kd is 64.6 nM.
With B5, the Kd amounted to 289 nM.
B6: the Kd was 69.9 nM.
On to B7, for which the Kd is 67.3 nM.
In the case of B8, the Kd was 8900 nM.
Regarding B9, the Kd amounted to 13.7 nM.
As for B10, the equilibrium dissociation constant (Kd) amounted to 101 nM.
For the molecule B11, the equilibrium dissociation constant (Kd) amounted to 2830 nM.

The target of another experiment is T1, CD70 on cells (CHO-CD70, JVM-3, U266, …). In words: 1.25 µg/mL scFv on U266 cells. In short, it runs like this: as §1
B1 showed a cell binding of 32000.
Take B2: the cell binding stood at 16500.
For the molecule B3, the cell binding came out at 2700.
With B4, the cell binding was 2980.
For the molecule B5, the cell binding was found to be 1430.
B6: the cell binding was found to be 20000.
B7 came in with a cell binding of 17400.
In turn, B8 gave a cell binding of 12000.
The molecule B9 returned a cell binding of 20400.
In the case of B10, the cell binding worked out at 18500.
In the case of B11, the cell binding is 953.

Broadly, the Kd is the constant that tells how readily two partners part at equilibrium.
